The text below walks through data of patent publication US20210347908A1 (ELPISCIENCE SUZHOU BIOPHARMA, published 2021).

Changes are numbered by the printed parent chain.

By EC50 (read off the curve) is commonly meant the midpoint of the concentration-response curve. As a reminder, the Kd is a measure of binding affinity in units of concentration. What is called EC50 is the midpoint of the concentration-response curve. By IC50 is commonly meant the concentration that inhibits the measured activity by half. What is called koff is the first-order rate constant of dissociation. In general, kon refers to the second-order rate constant of association.

In assay [1] the target is T1, 6×His tagged C57BL/6 mouse SIRPα ECD recombinant protein (mouse (C57BL/6), UniProt P97797 32-373).
T1 construct: extracellular domain; bought; also called mSIRPα (C57BL/6); mouse SIRPα (C57BL/6) ECD
T1 sequence: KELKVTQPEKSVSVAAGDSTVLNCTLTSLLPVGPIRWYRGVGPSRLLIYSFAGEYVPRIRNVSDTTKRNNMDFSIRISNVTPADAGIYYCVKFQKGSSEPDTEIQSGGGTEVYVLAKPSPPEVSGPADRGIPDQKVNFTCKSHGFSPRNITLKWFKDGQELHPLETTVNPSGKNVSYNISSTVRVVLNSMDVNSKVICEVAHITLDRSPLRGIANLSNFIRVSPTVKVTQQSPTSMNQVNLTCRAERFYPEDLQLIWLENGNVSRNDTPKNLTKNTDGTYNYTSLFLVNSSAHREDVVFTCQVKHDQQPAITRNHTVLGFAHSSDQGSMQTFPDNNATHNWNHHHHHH
Nature of the assay: ELISA on coated mouse SIRPα (C57BL/6) ECD [Continued) F]. In general terms: An ELISA detects its analyte on a solid surface through an enzyme-linked reagent.

For assay [2], the target named is T2, 6×His tagged human SIRPα v1 ECD recombinant protein (human, UniProt P78324 31-373).
T2 construct: extracellular domain; bought; also called hSIRPα V1 (SPR antigen)
Nature of the assay: SPR (Biacore).

Assay [3] deals with T3, Fc tagged human SIRPα v2 ECD recombinant protein (human).
T3 construct: range 1-369; cloned range M1-R369 includes the signal peptide; also called hSIRPα V2
In words: ELISA.

Assay [4] deals with T4, Fc tagged human SIRPγ ECD recombinant protein (human, UniProt Q9P1W8 29-360).
T4 construct: range 1-360; cloned range includes the signal peptide; also called hSIRPγ; not shown: human IgG Fc region (hFc) of the pCPC vector
In words: ELISA.

Assay [5] concerns the target T5, 6×His tagged human SIRPα v8 ECD recombinant protein (human).
T5 construct: extracellular domain; bought; also called hSIRPα V8
In words: ELISA.

Assay [6] deals with T6, Fc tagged human SIRPβ ECD recombinant protein (human, UniProt O00241 30-371).
T6 construct: range 1-371; cloned range includes the signal peptide; also called hSIRPβ; not shown: human IgG Fc region (hFc) of the pCPC vector
Nature of the assay: ELISA.

The target in assay [7] is T7, Fc tagged human SIRPα v1 ECD recombinant protein (human, UniProt P78324 31-370).
T7 construct: range 1-370; cloned range M1-R370 includes the signal peptide; also called hSIRPα V1; not shown: human IgG Fc region (hFc) of the pCPC vector
Nature of the assay: ELISA.

Assay [8] concerns the target T8, full length human SIRPα v1 stably expressed on CHOK1 cells (human, UniProt P78324 31-504).
T8 construct: whole, on cells; also called CHOK1-human SIRPα v1-1B4 cells; CHOK1-human SIRPα v1
Nature of the assay: FACS on CHOK1 cells. The procedure: (§1) Species cross reactivity of the purified hybridoma antibodies against human, cyno and mouse SIRPα was determined by FACS assay using CHOK1-human SIRPα v1-1B4 cells, CHOK1-cyno SIRPα-2A2 cells, and CHOK1-C57BL/6 mouse SIRPα-2.22 cells, which stably expressing SIRPα protein. Briefly the antibodies were incubated with 2×10⁵ target cells at 4° C. for 1 hour. After washing, fluorescence labeled anti-mouse or anti-human IgG 2nd antibody (Life Technologies) was added and incubated at 4° C. for 1 hour. Geometric median fluorescence intensity was detected and EC₅₀ was calculated. In particular, it is noted, in contrast to the other antibodies tested in the same experiment, 060 cannot bind with cyno SIRPα and 035 has cross reactivity against C57BL/6 mouse SIRPα.

For assay [9], the target named is T9, full length cyno SIRPα stably expressed on CHOK1 cells (cynomolgus monkey, UniProt A0A2K5VYQ9 31-507).
T9 construct: whole, on cells; also called CHOK1-cyno SIRPα-2A2 cells; CHOK1-cyno SIRPα
T9 sequence: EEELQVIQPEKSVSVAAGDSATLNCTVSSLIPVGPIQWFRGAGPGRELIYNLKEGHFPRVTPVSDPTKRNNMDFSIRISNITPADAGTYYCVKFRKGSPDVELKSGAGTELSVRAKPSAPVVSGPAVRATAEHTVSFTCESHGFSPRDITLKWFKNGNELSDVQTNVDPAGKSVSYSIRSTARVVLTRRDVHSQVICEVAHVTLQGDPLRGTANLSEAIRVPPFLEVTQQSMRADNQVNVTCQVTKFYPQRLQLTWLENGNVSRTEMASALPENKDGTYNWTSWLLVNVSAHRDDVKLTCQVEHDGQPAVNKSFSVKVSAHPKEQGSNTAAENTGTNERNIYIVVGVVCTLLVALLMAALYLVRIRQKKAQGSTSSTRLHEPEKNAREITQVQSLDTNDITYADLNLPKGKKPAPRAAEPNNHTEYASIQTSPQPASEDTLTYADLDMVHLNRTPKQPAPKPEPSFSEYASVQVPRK
In words: FACS on CHOK1 cells. Here is the method: as §1

Assay [10] concerns the target T10, full length C57BL/6 mouse SIRPα stably expressed on CHOK1 cells (mouse (C57BL/6), UniProt P97797 32-513).
T10 construct: whole, on cells; also called CHOK1-C57BL/6 mouse SIRPα-2.22 cells
T10 sequence (looked up): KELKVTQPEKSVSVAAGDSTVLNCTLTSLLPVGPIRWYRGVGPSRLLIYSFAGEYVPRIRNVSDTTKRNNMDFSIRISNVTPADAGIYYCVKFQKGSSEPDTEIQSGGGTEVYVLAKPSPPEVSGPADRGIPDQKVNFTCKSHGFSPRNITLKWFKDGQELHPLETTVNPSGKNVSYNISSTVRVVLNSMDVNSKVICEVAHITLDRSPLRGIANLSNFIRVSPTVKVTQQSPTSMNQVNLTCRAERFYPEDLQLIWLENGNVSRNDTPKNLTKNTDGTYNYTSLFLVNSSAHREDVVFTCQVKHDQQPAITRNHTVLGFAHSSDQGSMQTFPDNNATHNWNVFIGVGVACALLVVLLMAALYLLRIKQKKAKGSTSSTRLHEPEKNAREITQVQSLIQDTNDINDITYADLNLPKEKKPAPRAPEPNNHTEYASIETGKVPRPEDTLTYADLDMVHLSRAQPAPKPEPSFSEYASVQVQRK
In words: FACS on CHOK1 cells. The procedure:
as §1

The target of assay [11] is T11, biotin labeled soluble human SIRPα v1 ECD recombinant protein (human, UniProt P78324 31-373, biotin labeled).
T11 construct: extracellular domain
Nature of the assay: competitive ELISA, hSIRPα/CD47 blocking.

Assay [12] deals with T2, 6×His tagged human SIRPα v1 ECD …. Nature of the assay: SPR (Biacore), antibody captured. The procedure:
(§2) Anti-SIRPα chimeric antibodies were characterized for binding affinity against human SIRPα v1, human SIRPα v2 and C57BL/6 mouse SIRPα using Biacore (GE). Briefly the antibodies to be tested were captured to CM5 chip (GE) using Human Antibody Capture Kit (GE). The antigens of 6×His tagged human SIRPα v1, human SIRPα v2 and C57BL/6 mouse SIRPα ECD recombinant proteins were serially diluted for multiple doses and injected at 30 μl/min for 180 s. Buffer flow was maintained for dissociation of 400 s. 3 M MgCl₂ was used for chip regeneration. The association and dissociation curves were fit with 1:1 binding model, and the Ka/Kd/KD values for each antibody were calculated.
(In general: SPR reads the build-up and loss of mass on a sensor chip optically.)

Assay [13] deals with T1, 6×His tagged C57BL/6 mouse SIRPα ECD …. Nature of the assay: SPR (Biacore).
The target of assay [14] is T12, 6×His tagged human SIRPα v2 ECD recombinant protein (human). In words: SPR (Biacore).
In assay [15] the target is T1, 6×His tagged C57BL/6 mouse SIRPα ECD …. In words: SPR (Biacore), antibody captured. Here is the method: as §2
Assay [16] addresses T12, 6×His tagged human SIRPα v2 ECD …. Nature of the assay: SPR (Biacore), antibody captured. Here is the method:
as §2

T2 sequence (P78324 other isoform, or with tags, fused parts or gaps): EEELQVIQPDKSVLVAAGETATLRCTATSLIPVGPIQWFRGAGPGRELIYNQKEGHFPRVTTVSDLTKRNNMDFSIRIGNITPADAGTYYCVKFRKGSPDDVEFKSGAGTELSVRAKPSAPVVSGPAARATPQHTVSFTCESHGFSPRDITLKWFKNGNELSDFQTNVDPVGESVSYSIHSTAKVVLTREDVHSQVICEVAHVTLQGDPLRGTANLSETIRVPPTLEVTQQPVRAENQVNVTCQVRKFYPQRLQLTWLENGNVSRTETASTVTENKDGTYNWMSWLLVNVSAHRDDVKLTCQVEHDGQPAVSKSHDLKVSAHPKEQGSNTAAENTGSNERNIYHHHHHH
T7 sequence (P78324 31-370 limits assumed): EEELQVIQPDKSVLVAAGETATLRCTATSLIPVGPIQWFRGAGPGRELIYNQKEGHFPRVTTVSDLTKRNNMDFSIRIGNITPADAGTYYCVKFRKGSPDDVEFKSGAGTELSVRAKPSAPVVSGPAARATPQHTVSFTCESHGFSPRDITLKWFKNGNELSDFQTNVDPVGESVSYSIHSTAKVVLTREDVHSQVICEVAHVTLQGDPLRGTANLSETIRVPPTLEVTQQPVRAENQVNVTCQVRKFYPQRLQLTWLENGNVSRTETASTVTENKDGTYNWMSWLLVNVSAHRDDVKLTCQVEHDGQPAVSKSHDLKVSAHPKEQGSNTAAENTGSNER
T6 sequence (O00241 30-371 limits assumed, form in doubt): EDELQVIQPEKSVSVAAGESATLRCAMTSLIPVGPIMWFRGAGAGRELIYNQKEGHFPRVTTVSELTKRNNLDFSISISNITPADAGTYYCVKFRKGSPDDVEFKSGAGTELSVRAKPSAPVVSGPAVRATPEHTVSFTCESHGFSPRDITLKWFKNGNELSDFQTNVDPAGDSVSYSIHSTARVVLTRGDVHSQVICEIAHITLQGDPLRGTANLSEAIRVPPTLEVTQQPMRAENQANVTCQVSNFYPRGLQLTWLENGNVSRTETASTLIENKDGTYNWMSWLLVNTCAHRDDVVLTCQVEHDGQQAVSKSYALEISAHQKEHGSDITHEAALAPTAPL
T4 sequence (Q9P1W8 29-360 limits assumed, form in doubt): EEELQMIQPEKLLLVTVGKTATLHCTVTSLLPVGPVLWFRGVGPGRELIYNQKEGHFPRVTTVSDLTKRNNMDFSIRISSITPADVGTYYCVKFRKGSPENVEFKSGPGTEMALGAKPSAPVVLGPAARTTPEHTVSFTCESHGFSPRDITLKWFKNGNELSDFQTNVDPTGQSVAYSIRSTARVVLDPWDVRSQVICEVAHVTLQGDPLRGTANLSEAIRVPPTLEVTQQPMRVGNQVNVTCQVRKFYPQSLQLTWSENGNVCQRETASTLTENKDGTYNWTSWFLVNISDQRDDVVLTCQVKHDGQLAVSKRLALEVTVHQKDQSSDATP
T12 sequence (chain, as listed by the source): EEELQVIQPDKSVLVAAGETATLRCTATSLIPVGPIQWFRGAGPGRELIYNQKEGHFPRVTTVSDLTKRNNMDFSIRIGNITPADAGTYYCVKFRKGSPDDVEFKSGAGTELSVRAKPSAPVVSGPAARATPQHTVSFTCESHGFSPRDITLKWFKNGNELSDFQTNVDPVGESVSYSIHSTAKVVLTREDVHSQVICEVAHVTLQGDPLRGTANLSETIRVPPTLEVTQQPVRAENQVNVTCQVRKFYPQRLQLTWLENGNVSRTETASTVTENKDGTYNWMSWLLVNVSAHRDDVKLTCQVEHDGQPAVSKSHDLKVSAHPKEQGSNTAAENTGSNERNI
T11 sequence (P78324 31-373): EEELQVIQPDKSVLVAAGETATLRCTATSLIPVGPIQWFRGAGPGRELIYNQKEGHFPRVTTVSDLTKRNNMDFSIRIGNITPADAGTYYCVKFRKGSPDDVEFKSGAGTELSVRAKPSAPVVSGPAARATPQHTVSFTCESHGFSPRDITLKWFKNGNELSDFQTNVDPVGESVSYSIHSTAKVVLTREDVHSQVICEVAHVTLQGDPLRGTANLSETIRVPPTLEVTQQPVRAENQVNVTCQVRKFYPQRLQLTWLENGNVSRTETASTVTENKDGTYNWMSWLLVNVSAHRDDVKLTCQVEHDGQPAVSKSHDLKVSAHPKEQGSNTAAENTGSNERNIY

B1: humanized antibody hu035.03 (antibody, V domains shown)
VH: QIQLVQSGSELKKPGASVKVSCRARGYTLTDYAMNWVRQAPGQGLEWMGFINTYTGEPTYAQGFKGRFVFSLDTSVSTAYLQIGSLKAEDTAVYYCARTRGYYDFDGGAFDYWGQGTLVTVSS
VL: DIQMTQSPSSLSASVGDRVTITCRASQNVGTHLAWYQQKPGKSPKALIFSASYRYIGVPSRFSGSGSGTDFTLTISSLQPEDFATYYCQQYNTYPLTFGQGTKLEIK
B1: the “EC50 (read off the curve)” value in [1] is about 0.09 µg/mL. Also, the Kd in [2] and in assay [12] was 3200 pM throughout. The EC50 in assay [3] is 110 pM; in assay [4] it was 6780 pM; in [5] it was 230 pM; in assay [6], 170 pM; in assay [7], 130 pM; in [8], 1460 pM. For the same molecule, the EC50 in assay [9] was 300 pM. Also, the “MFI at 2 ug/ml” value in assay [10] was 626 MFI. Further, the IC50 in [11] was 1430 pM. Besides, in assay [12], the koff was found to be 0.000189 s⁻¹. The kon in assay [12] worked out at 59200 M⁻¹ s⁻¹.

B2: humanized antibody hu035.13 (antibody, V domains shown)
VH: B1 VH with R23K, R25S, T28S, L29I, D31N, G84S
VL: DIQMTQSPSRLGASVGDRVTITCRASQNVGTHLAWYQQKPGKAPKSLIYSAIYRYIGVPSRFSGSGSGTDFTLTISSLQPEDFATYFCQQYNTYPLTFDQGTKLEIKR
For B2, the Kd was 610 pM in [2]; 45800 pM in assay [13]; 1240 pM in [14]; 610 pM in [12]; 45800 pM in assay [15]; 3200 pM in assay [16]. Besides, the EC50 in assay [3] came out at 170 pM; in [4], 670 pM; in assay [5] it was 160 pM; in [6] it was 180 pM; in [7], 140 pM; in assay [8], 1030 pM. A half-maximal effect in assay [9] (EC50) was put at 260 pM. For the same molecule, in [10], the “MFI at 2 ug/ml” value amounted to 876 MFI. Moreover, the IC50 in assay [11] was 1330 pM. Besides, the values for the koff in [12], in assay [15] and in assay [16] were 0.000117 s⁻¹, 0.00259 s⁻¹ and 0.000189 s⁻¹, respectively. Besides, the kon in assay [12] was determined as 192000 M⁻¹ s⁻¹; in assay [15], 56600 M⁻¹ s⁻¹; in assay [16], 59200 M⁻¹ s⁻¹.

B3: humanized antibody hu035.10 (antibody, V domains shown)
VH: B1 VH
VL: B1 VL with S52I, S77N
On to B3, for which, in assay [1], the “EC50 (read off the curve)” value is about 0.04 µg/mL. The Kd was determined as 3820 pM in assay [2]; 33800 pM in [13]; 2150 pM in assay [14]; 3820 pM in [12]; 33800 pM in assay [15]; 1640 pM in assay [16]. Moreover, the EC50 in assay [3] was 160 pM; in [4] it was 340 pM; in assay [5] it was 180 pM; in assay [6], 190 pM; in [7], 190 pM; in assay [8] it was 1440 pM. In assay [9], this molecule displayed a 50% effective concentration (EC50) of 330 pM. Further, the “MFI at 2 ug/ml” value in assay [10] amounted to 1110 MFI. In assay [11], the IC50 came out at 1490 pM. Besides, the figures for the koff in assay [12], in [15] and in [16] were 0.000238 s⁻¹, 0.00152 s⁻¹ and 0.00017 s⁻¹, respectively. The results for the kon in assay [12], in assay [15] and in assay [16] were 62100 M⁻¹ s⁻¹, 45000 M⁻¹ s⁻¹ and 104000 M⁻¹ s⁻¹, respectively.

B4: humanized antibody hu035.09 (antibody, V domains shown)
VH: B1 VH with R25G
VL: B1 VL with S43A, A46S, F49Y, S52I
In the case of B4, the “EC50 (read off the curve)” value in [1] was about 0.04 µg/mL. In addition, the Kd in assay [2] and in assay [12] was 2170 pM in each case. For the same molecule, the EC50 in [3] was found to be 190 pM; in assay [4] it was 1050 pM; in assay [5], 210 pM; in [6] it was 230 pM; in [7], 130 pM; in assay [8] it was 1450 pM. The same molecule showed an EC50 in assay [9] of 360 pM. Further, in assay [10], the “MFI at 2 ug/ml” value is 950 MFI. Moreover, in assay [11], the IC50 worked out at 1360 pM. In addition, the koff in assay [12] turned out to be 0.000191 s⁻¹. The kon in assay [12] is 88300 M⁻¹ s⁻¹.

B5: humanized antibody hu035.14 (antibody, V domains shown)
VH: B1 VH with R23K, R25S, T28S, L29I, G84S
VL: B1 VL with S52I, S77N
Consider B5, for which the “EC50 (read off the curve)” value in assay [1] was about 0.04 µg/mL. Besides, the equilibrium dissociation constant (Kd) in [2] and in assay [12] was 1440 pM each time. In addition, the EC50 in [3] came out at 160 pM; in assay [4], 520 pM; in assay [5], 280 pM; in assay [6] it was 230 pM; in assay [7], 150 pM; in assay [8], 1310 pM. In assay [9], the EC50 was determined as 360 pM. Besides, the “MFI at 2 ug/ml” value in assay [10] turned out to be 1050 MFI. For the same molecule, the IC50 in assay [11] was found to be 1460 pM. Besides, the koff in [12] turned out to be 0.000129 s⁻¹. In addition, the kon in [12] was found to be 89200 M⁻¹ s⁻¹.
